Reference: paper PMC2742162

How the values were obtained:
pro-N-cadherin (human) = pro-N-cadherin (human) (UniProt P19022); experiment: co-IP
pro-E-cadherin (human) = pro-E-cadherin (human) (UniProt P12830); experiment: co-IP
Chain of UniProt P12830 (P12830 23-882): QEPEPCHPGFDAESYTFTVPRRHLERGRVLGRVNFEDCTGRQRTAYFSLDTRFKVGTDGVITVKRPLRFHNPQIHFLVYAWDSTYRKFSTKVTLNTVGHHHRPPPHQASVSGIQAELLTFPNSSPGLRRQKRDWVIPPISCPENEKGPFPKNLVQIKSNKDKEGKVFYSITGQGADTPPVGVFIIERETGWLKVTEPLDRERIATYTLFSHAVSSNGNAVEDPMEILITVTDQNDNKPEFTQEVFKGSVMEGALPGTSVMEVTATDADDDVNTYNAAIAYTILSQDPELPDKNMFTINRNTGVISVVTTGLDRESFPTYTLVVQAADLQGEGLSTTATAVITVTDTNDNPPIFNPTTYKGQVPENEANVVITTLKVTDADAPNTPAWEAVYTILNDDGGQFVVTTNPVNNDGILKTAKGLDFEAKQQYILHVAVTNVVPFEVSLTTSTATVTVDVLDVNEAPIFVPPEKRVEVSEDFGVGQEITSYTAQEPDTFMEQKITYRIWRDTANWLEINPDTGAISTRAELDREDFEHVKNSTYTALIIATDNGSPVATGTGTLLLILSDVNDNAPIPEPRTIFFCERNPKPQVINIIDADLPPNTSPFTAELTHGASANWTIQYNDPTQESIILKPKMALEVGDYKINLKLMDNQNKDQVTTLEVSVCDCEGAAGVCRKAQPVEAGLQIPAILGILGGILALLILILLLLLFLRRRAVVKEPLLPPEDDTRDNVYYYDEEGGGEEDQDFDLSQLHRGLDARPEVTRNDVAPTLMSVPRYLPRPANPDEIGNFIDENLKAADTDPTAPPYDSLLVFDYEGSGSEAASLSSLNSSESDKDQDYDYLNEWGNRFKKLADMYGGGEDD

Chain of UniProt P19022 (P19022 26-906): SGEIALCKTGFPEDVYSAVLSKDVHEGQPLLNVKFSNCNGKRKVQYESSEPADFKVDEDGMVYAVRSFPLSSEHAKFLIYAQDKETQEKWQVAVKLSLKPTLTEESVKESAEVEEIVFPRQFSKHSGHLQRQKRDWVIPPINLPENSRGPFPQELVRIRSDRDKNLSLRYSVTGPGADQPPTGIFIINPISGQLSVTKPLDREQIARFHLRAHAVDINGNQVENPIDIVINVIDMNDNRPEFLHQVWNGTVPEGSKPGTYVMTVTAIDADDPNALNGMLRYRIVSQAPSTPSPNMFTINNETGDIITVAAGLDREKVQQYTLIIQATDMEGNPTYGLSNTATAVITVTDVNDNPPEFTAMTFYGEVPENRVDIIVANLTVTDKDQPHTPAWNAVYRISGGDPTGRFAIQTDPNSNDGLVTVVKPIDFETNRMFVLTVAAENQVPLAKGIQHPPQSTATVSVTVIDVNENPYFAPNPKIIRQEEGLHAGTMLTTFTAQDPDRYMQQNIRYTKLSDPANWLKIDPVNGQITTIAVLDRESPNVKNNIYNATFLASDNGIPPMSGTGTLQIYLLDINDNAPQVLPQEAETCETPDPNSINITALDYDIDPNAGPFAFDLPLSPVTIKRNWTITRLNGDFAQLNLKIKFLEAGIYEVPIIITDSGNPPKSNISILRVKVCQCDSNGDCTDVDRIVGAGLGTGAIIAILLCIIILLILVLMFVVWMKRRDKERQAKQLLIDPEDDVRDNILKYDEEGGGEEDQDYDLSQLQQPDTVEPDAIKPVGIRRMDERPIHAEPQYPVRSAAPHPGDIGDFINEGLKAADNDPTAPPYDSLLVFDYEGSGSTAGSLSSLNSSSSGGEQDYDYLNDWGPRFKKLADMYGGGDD

α-catenin (from UniProt P35221 1-906) (natural protein)
percent of pro-cadherin molecules in a complex with α-catenin (pro-N-cadherin (human)): 92%
percent of pro-cadherin molecules in a complex with α-catenin (pro-E-cadherin (human)): 81%
